Experimental data reported in patent US20050154187A1.

Columns and labels:
[1] = target: soluble VEGF receptor Flt-1 (sFlt-1) (UniProt P17948); test: ELISA, plate-coated sFlt-1, detection with DHFR-specific mAb
[2] = target: soluble VEGF receptor KDR (sKDR) (UniProt P35968); test: ELISA, plate-coated sKDR, detection with DHFR-specific mAb

Sequence of dihydrofolate reductase (DHFR), negative control protein (P00375 1-186 limits assumed): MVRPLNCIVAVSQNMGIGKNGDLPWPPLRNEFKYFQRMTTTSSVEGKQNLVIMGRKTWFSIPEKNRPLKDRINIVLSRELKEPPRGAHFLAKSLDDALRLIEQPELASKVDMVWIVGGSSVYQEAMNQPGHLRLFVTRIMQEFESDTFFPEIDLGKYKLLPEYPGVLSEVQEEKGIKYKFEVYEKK

## dihydrofolate reductase (DHFR), negative control protein (from UniProt P00375 1-186) (enzyme)
[1]
  OD492 nm: 0.088 OD492 nm
[2]
  OD492 nm: 0.074 OD492 nm
